{"source": "paper PMC5141385", "about": "“Small heat shock proteins sequester misfolding proteins in near-native conformation for cellular protection and efficient refolding” (Nature Communications, 2016)", "binders": {"B1": {"name": "His6-MDH (malate dehydrogenase) (enzyme)", "chain": "AKVAVLGASGGIGQPLSLLLKNSPLVSRLTLYDIAHTPGVAADLSHIETRATVKGYLGPEQLPDCLKGCDVVVIPAGVPRKPGMTRDDLFNTNATIVATLTAACAQHCPDAMICIISNPVNSTIPITAEVFKKHGVYNPNKIFGVTTLDIVRANAFVAELKGLDPARVSVPVIGGHAGKTIIPLISQCTPKVDFPQDQLSTLTGRIQEAGTEVVKAKAGAGSATLSMAYAGARFVFSLVDAMNGKEGVVECSFVKSQETDCPYFSTPLLLGKKGIEKNLGIGKISPFEEKMIAEAIPELKASIKKGEEFVKNMK", "notes": "malate dehydrogenase (MDH), thermolabile model substrate; The aggregation, centrifugation and SEC methods say only 'MDH'; also called His6-tagged MDH; source: E. coli (derivative of MC4100), purified (Ni-IDA)"}, "B2": {"name": "MDH labelled with 7-diethylcoumarin-3-carboxylic acid (enzyme, UniProt P00346 25-338, looked up)", "chain": "AKVAVLGASGGIGQPLSLLLKNSPLVSRLTLYDIAHTPGVAADLSHIETRATVKGYLGPEQLPDCLKGCDVVVIPAGVPRKPGMTRDDLFNTNATIVATLTAACAQHCPDAMICIISNPVNSTIPITAEVFKKHGVYNPNKIFGVTTLDIVRANAFVAELKGLDPARVSVPVIGGHAGKTIIPLISQCTPKVDFPQDQLSTLTGRIQEAGTEVVKAKAGAGSATLSMAYAGARFVFSLVDAMNGKEGVVECSFVKSQETDCPYFSTPLLLGKKGIEKNLGIGKISPFEEKMIAEAIPELKASIKKGEEFVKNMK", "modifications": "7-diethylcoumarin-3-carboxylic acid (succinimidyl ester labelling, sites not stated)", "notes": "malate dehydrogenase (MDH) purchased from Roche; also called labelled MDH; MDH (Roche); source: bought: Roche; labelled with 7-diethylcoumarin-3-carboxylic acid succinimidyl ester"}, "B3": {"name": "Hsp26 (natural protein, S. cerevisiae, UniProt P15992 1-214, looked up)", "chain": "MSFNSPFFDFFDNINNEVDAFNRLLGEGGLRGYAPRRQLANTPAKDSTGKEVARPNNYAGALYDPRDETLDDWFDNDLSLFPSGFGFPRSVAVPVDILDHDNNYELKVVVPGVKSKKDIDIEYHQNKNQILVSGEIPSTLNEESKDKVKVKESSSGKFKRVITLPDYPGVDADNIKADYANGVLTLTVPKLKPQKDGKNHVKKIEVSSQESWGN", "notes": "Hsp26, small heat shock protein of S. cerevisiae; also called sHsp; small heat shock protein Hsp26; source: E. coli (derivative of MC4100), solubilised from the pellet in 8 M urea, purified (Ni-IDA, Sephacryl S-300); not shown: His6-Smt3, N-terminal, cleaved"}}, "settings_in_all_cases": "both partners purified", "key": {"Hsp42 [1]": {"molecular_target": "T1, Hsp42 (S. cerevisiae, UniProt Q12329 1-375)", "T1 construct": "Hsp42, small heat shock protein of S. cerevisiae; Cloned into pMal-c2E; the enterokinase site was changed to a PreScission site, so residues of that site may remain at the N-terminus; also called sHsp; small heat shock protein Hsp42; source: E. coli ArcticExpress, purified (amylose resin, PreScission cleavage, Sephacryl S-300); not shown: MBP, N-terminal, cleaved", "T1 sequence (Q12329 whole entry)": "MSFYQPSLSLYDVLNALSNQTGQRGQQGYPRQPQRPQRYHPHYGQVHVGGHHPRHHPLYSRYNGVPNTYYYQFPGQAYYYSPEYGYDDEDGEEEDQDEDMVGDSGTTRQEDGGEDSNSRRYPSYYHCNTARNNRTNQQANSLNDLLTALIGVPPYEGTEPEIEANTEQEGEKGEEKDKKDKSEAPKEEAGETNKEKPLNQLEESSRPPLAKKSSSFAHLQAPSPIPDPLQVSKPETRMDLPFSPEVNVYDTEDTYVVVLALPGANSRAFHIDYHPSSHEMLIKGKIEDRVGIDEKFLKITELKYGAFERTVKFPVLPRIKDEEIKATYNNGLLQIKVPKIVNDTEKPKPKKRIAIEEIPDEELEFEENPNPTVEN", "experiment": "cross-linking; DSS cross-linking of Hsp42/MDH complexes; MDH cross-link pattern by western blot"}, "Hsp42 [2]": {"molecular_target": "T1, Hsp42", "experiment": "FRET or BRET; MDH–YFP and coumarin-labelled MDH (each 0.25 μM) mixed in preheated buffer C at 47 °C (heat-induced co-aggregation); signal at 527 nm; with or without Hsp26 or Hsp42"}, "[3]": {"molecular_target": "B1", "experiment": "co-sedimentation; MDH (0.5 μM) denatured 60 min at 41 °C in buffer C with or without sHsps (0.1–2.5 μM); 10–50% glycerol gradient, 40,000 r.p.m., 1 h, 4 °C, and supernatant-pellet centrifugation; fractions by SDS-PAGE and western blot"}, "[4]": {"molecular_target": "B2", "experiment": "FRET or BRET; MDH–YFP and coumarin-labelled MDH (each 0.25 μM) mixed in preheated buffer C at 47 °C (heat-induced co-aggregation); signal at 527 nm; with or without Hsp26 or Hsp42"}}, "data": [{"binder": "B1", "values": [{"measurement": "binding result", "setting": "Hsp42 [1]", "result": "binds"}]}, {"binder": "B2", "values": [{"measurement": "binding result", "setting": "Hsp42 [2]", "result": "binds"}]}, {"binder": "B3", "values": [{"measurement": "binding result", "setting": "[3]", "result": "binds"}, {"measurement": "binding result", "setting": "[4]", "result": "binds"}]}]}
